The assay deals with Nascent polypeptide-associated complex (NAC) protein of Picrophilus torridus (Picrophilus torridus). Kind of assay: SEC; HiPrep S-200 HR column; elution compared with protein standards run on this column.

The stoichiometry N is a count of units in the complex or per binding partner.

For the substance “Nascent polypeptide-associated complex (NAC) protein of Picrophilus torridus (natural protein)”, the stoichiometry N was found to be 2.
